Results on 2 substances are retold here after paper PMC11360004.

Assay [1] deals with Kelch-like ECH-associated protein 1 (Keap1), Cy3-labeled (UniProt Q14145). The assay is described as follows: MST; Monolith NT.115; Cy3-labeled Keap1 at constant concentration, MNT titrated; 25 mM sodium phosphate, 150 mM NaCl, pH 8.0.
Assay [2] deals with α/β importin complex labeled with Cy3 (UniProt Q14974). The assay is described as follows: MST; Cy3-labeled β-importin in the α/β importin complex at constant concentration, MNT titrated; 20 mM HEPES, 110 mM KCl, 5 mM NaHCO3, 5 mM MgCl2, 0.1 mM CaCl2, 1 mM EGTA, 1 mM DTT, pH 7.4.
UniProt Q14974, sequence (Q14974 whole entry, looked up, one chain of several): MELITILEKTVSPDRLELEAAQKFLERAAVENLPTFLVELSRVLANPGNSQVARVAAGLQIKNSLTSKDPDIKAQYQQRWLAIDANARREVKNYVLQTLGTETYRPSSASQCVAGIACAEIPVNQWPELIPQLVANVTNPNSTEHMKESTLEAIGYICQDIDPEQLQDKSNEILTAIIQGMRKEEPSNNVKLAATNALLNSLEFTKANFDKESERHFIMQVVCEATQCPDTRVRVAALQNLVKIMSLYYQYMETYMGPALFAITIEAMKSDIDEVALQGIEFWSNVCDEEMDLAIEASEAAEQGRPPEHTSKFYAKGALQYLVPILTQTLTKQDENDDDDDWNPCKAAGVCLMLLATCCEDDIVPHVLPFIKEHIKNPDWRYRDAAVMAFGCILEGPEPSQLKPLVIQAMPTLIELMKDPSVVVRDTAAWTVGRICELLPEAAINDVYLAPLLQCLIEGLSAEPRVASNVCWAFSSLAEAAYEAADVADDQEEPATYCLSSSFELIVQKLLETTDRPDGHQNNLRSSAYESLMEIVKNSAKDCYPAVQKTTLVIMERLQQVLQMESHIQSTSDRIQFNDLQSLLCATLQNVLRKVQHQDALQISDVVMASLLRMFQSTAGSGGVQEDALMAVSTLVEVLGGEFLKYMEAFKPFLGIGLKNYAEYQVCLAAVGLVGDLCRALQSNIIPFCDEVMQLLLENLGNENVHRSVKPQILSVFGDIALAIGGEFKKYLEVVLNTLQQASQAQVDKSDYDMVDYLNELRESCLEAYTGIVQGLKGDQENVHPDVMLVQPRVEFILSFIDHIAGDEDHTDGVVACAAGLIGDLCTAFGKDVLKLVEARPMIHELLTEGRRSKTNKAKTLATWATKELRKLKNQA
For assay [3], the target named is epidermal growth factor receptor (EGFR) on A431 cells (human (endogenous in A431)) (UniProt P00533). Put plainly: fluorescent-labeled ligand competitive binding on cells (plate reader); A431 cells fixed with 0.5% paraformaldehyde in 48-well plates; 25 nM Alexa-647-labeled MNT1 and different concentrations of MNTC or MNTN; DMEM with 1% BSA, 15 mM HEPES, pH 7.3, overnight at +4 °C.

UniProt Q14145, sequence (Q14145 whole entry): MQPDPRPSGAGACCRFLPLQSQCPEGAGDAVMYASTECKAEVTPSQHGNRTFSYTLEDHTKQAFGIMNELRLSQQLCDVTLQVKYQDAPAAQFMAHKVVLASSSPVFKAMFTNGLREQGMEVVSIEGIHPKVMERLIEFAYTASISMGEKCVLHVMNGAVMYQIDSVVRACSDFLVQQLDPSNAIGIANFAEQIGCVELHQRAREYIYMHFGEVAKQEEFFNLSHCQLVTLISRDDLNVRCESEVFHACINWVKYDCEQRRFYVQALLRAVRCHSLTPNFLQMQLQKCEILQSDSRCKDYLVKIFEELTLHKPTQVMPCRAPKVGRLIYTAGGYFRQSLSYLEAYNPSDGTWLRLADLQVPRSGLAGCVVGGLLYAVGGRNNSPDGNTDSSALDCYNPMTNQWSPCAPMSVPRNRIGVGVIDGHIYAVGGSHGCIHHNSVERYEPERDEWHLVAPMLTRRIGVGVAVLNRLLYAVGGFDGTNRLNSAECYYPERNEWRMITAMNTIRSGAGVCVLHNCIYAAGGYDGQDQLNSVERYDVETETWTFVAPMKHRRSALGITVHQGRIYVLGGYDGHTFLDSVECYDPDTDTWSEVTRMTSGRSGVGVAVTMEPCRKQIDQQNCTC

In the case of “DTox-HMP-NLS-EGF (original modular nanotransporter with full-size HMP carrier module) (from UniProt P24232 1-396)”, the Kd (in general, the concentration at which binding is half-saturated) in assay [1] is 0.205 µM.
As for “DTox-HMPN-NLS-EGF (modular nanotransporter with the N-terminal fragment of HMP) (from UniProt P24232 1-136)”, the Kd in assay [2] was 0.16 µM; in assay [3], 0.02 µM; in assay [1], 0.428 µM.
